Assays:
[1] = target: T1, platelet integrin αIIbβ3 (human platelet glycoprotein gpIIb/IIIa), purified (human, UniProt P08514 32-1039; P05106 27-788); test: SPR (BIAcore), αIIbβ3 immobilized
T1 construct: mature

[2] = target: T1, platelet integrin αIIbβ3 (human …); test: inhibition of 125I-fibrinogen binding to purified αIIbβ3

| Binder | kon [1] [M⁻¹ s⁻¹] | IC50 [2] [nM] |
| --- | --- | --- |
| fibrinogen (ligand) chain 1: ADSGEGDFLAEGGGVRGPRVVERHQSACKDSDWPFCSDEDWNYKCPSGCRMKGLIDEVNQDFTNRINKLKNSLFEYQKNNKDSHSLTTNIMEILRGDFSSANNRDNTYNRVSEDLRSRIEVLKRKVIEKVQHIQLLQKNVRAQLVDMKRLEVDIDIKIRSCRGSCSRALAREVDLKDYEDQQKQLEQVIAKDLLPSRDRQHLPLIKMKPVPDLVPGNFKSQLQKVPPEWKALTDMPQMRMELERPGGNEITRGGSTSYGTGSETESPRNPSSAGSWNSGSSGPGSTGNRNPGSSGTGGTATWKPGSSGPGSTGSWNSGSSGTGSTGNQNPGSPRPGSTGTWNPGSSERGSAGHWTSESSVSGSTGQWHSESGSFRPDSPGSGNARPNNPDWGTFEEVSGNVSPGTRREYHTEKLVTSKGDKELRTGKEKVTSGSTTTTRRSCSKTVTKTVIGPDGHKEVTKEVVTSEDGSDCPEAMDLGTLSGIGTLDGFRHRHPDEAAFFDTASTGKTFPGFFSPMLGEFVSETESRGSESGIFTNTKESSSHHPGIAEFPSRGKSSSYSKQFTSSTSYNRGDSTFESKSYKMADEAGSEADHEGTHSTKRGHAKSRPV chain 2: QGVNDNEEGFFSARGHRPLDKKREEAPSLRPAPPPISGGGYRARPAKAAATQKKVERKAPDAGGCLHADPDLGVLCPTGCQLQEALLQQERPIRNSVDELNNNVEAVSQTSSSSFQYMYLLKDLWQKRQKQVKDNENVVNEYSSELEKHQLYIDETVNSNIPTNLRVLRSILENLRSKIQKLESDVSAQMEYCRTPCTVSCNIPVVSGKECEEIIRKGGETSEMYLIQPDSSVKPYRVYCDMNTENGGWTVIQNRQDGSVDFGRKWDPYKQGFGNVATNTDGKNYCGLPGEYWLGNDKISQLTRMGPTELLIEMEDWKGDKVKAHYGGFTVQNEANKYQISVNKYRGTAGNALMDGASQLMGENRTMTIHNGMFFSTYDRDNDGWLTSDPRKQCSKEDGGGWWYNRCHAANPNGRYYWGGQYTWDMAKHGTDDGVVWMNWKGSWYSMRKMSMKIRPFFPQQ chain 3: YVATRDNCCILDERFGSYCPTTCGIADFLSTYQTKVDKDLQSLEDILHQVENKTSEVKQLIKAIQLTYNPDESSKPNMIDAATLKSRKMLEEIMKYEASILTHDSSIRYLQEIYNSNNQKIVNLKEKVAQLEAQCQEPCKDTVQIHDITGKDCQDIANKGAKQSGLYFIKPLKANQQFLVYCEIDGSGNGWTVFQKRLDGSVDFKKNWIQYKEGFGHLSPTGTTEFWLGNEKIHLISTQSAIPYALRVELEDWNGRTSTADYAMFKVGPEADKYRLTYAYFAGGDAGDAFDGFDFGDDPSDKFFTSHNGMQFSTWDNDNDKFEGNCAEQDGSGWWMNKCHAGHLNGVYYQGGTYSKASTPNGYDNGIIWATWKTRWYSMKKTTMKIIPFNRLTIGEGQQHHLGGAKQAGDV | 600000 | – |
| CSFGRNDSRNC (HELM PEPTIDE1{[ac].C.S.F.G.R.N.D.S.R.N.C.[am]}$PEPTIDE1,PEPTIDE1,2:R3-12:R3$$$V2.0; SMILES CC(=O)N[C@H]1CSSC[C@@H](C(N)=O)NC(=O)[C@H](CC(N)=O)NC(=O)[C@H](CCCNC(=N)N)NC(=O)[C@H](CO)NC(=O)[C@H](CC(=O)O)NC(=O)[C@H](CC(N)=O)NC(=O)[C@H](CCCNC(=N)N)NC(=O)CNC(=O)[C@H](Cc2ccccc2)NC(=O)[C@H](CO)NC1=O, also called peptide 40 (circular)) [circular peptide CSFGRNDSRNC derived from the HCDR3 of MTF-40] | – | 500 |
| Ac-GCSFGRNDSRNCY-NH2 (cysteine pairing not given here, also called peptide 40 (linear)) [linear peptide GCSFGRNDSRNCY derived from the HCDR3 of MTF-40] | – | 500 |
| CSFGRTDQRNC (HELM PEPTIDE1{[ac].C.S.F.G.R.T.D.Q.R.N.C.[am]}$PEPTIDE1,PEPTIDE1,2:R3-12:R3$$$V2.0; SMILES CC(=O)N[C@H]1CSSC[C@@H](C(N)=O)NC(=O)[C@H](CC(N)=O)NC(=O)[C@H](CCCNC(=N)N)NC(=O)[C@H](CCC(N)=O)NC(=O)[C@H](CC(=O)O)NC(=O)[C@H]([C@@H](C)O)NC(=O)[C@H](CCCNC(=N)N)NC(=O)CNC(=O)[C@H](Cc2ccccc2)NC(=O)[C@H](CO)NC1=O, also called peptide 32 (circular)) [circular peptide CSFGRTDQRNC derived from the HCDR3 of MTF-32] | – | 2000 |
| Ac-GCSFGRTDQRNCY-NH2 (cysteine pairing not given here, also called peptide 32 (linear)) [linear peptide GCSFGRTDQRNCY derived from the HCDR3 of MTF-32] | – | 2000 |

From patent US20060121570A1 (published 2006)
